Measured values taken from paper PMC11220139, “Biophysical and structural studies of fibulin-2” (Scientific Reports, 2024).

Columns and labels:
[1] = biological target: mouse fibulin-2 construct S427-G545, three anaphylatoxin-like modules (mutant C500L) (mouse) (UniProt P37889); experiment: SEC-MALS; 50 µL of ~2 mg/mL SEC purified protein on Superdex 200 Increase 10/300, 20 mM Tris-HCl pH 8, 150 mM NaCl, 0.5 mL/min
[2] = biological target: the molecule itself; experiment: as above

| Molecule | stoichiometry N [1] | stoichiometry N [2] |
| --- | --- | --- |
| mouse fibulin-2 construct S427-G545, three anaphylatoxin-like modules (mutant C500L) (from UniProt P37889 427-545) (domain or fragment) | 2 |  |
| mouse fibulin-2 construct S427-G545, three anaphylatoxin-like modules (wild-type) (domain or fragment, UniProt P37889 427-545, looked up, fibulin-2, mouse, residues S427-G545 (three anaphylatoxin-like modules); numbering is according to the full-length protein; Homodimer linked by an inter-molecular disulfide bond via C500; 8 intra-molecular disulfide bonds in each chain; also called MH6M-S427-G545; pAS79 construct; source: E. coli BL21 (DE3) with the CyDisCo plasmid pMJS205 (Erv1p and PDI), purified (nickel IMAC, SEC); not shown: …) STKDLIETCCAAGQQWAIDNDECQEIPENGAQSDICRIAQRQCCISYLKEKSCVAGVMGAKEGETCGAEDNDTCGVSLYKQCCDCCGLGLRVRAEGQSCESNPNLGYPCNHVMLSCCEG |  | 2 |
